Test results published in US20230151095A1 (Xencor, published 2023).

Target: T1, NKG2D (human, UniProt P26718 78-216, limits assumed)
T1 construct: XENP25379 (human) and XENP25380 (cynomolgus) were the panning antigens; also called Recombinant human NKG2D (XENP25379); CD314
T1 sequence (looked up): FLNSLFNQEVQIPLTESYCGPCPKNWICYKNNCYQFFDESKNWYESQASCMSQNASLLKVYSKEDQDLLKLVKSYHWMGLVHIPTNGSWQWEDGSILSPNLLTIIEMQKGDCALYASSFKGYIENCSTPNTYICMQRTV
Experiment: ELISA of phage clones on NKG2D

B1: 1D2B4[NKG2D] (antibody, V domains shown)
VH: EVQLLESGGGLVQPGGSLRLSCAASGFTFSSFGMSWVRQAPGKGLEWVSTISGSGSTTYYADSVKGRFTISRDNSKNTLYLQMNSLRAEDTAVYYCAKGVFSEWHYYFDYWGQGTLVTVSS
VL: not shown
- binding result: binds
